Results on 2 molecules are retold here after publication PMC8622909 (Pharmaceuticals, 2021).

The term IC50 denotes the concentration needed to halve the response being measured. A word on the Km: it is the concentration of substrate that gives half-maximal velocity. The Vmax is the rate approached at saturating substrate.

The target of one data set is T1, UGT1A9 (Homo sapiens, UniProt O60656).
T1 construct: human recombinant UGT1A9
T1 sequence (O60656 26-530): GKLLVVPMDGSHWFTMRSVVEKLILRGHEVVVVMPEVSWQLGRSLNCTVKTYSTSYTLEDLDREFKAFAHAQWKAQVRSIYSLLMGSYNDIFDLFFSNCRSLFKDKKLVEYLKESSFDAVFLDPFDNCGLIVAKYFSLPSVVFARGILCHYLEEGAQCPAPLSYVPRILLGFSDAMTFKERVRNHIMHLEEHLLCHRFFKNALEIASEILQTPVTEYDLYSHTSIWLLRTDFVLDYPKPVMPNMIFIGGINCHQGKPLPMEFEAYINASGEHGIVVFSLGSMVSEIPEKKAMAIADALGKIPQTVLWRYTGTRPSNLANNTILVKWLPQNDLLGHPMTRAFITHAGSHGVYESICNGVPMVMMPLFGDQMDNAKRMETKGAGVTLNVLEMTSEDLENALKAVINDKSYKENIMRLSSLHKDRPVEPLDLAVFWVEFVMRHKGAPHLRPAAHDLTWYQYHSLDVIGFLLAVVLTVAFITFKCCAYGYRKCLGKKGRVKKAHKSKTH
The data set is described as follows: inhibition of PTU glucuronidation by recombinant UGT1A9, HPLC-MS/MS. It counts as biochemical. The note with it: read-out: Magnolol IC50.

Substrate in the data set “purified protein”: CCCc1cc(=O)[nH]c(=S)[nH]1
Description: purified protein. To be noted: UDPGA.

As to `C=CCc1ccc(O)c(-c2cc(CC=C)ccc2O)c1` [magnolol], the IC50 at UGT1A9 is 1160 nM.

B1: UGT1A9 (Homo sapiens) (protein)
chain: GKLLVVPMDGSHWFTMRSVVEKLILRGHEVVVVMPEVSWQLGRSLNCTVKTYSTSYTLEDLDREFKAFAHAQWKAQVRSIYSLLMGSYNDIFDLFFSNCRSLFKDKKLVEYLKESSFDAVFLDPFDNCGLIVAKYFSLPSVVFARGILCHYLEEGAQCPAPLSYVPRILLGFSDAMTFKERVRNHIMHLEEHLLCHRFFKNALEIASEILQTPVTEYDLYSHTSIWLLRTDFVLDYPKPVMPNMIFIGGINCHQGKPLPMEFEAYINASGEHGIVVFSLGSMVSEIPEKKAMAIADALGKIPQTVLWRYTGTRPSNLANNTILVKWLPQNDLLGHPMTRAFITHAGSHGVYESICNGVPMVMMPLFGDQMDNAKRMETKGAGVTLNVLEMTSEDLENALKAVINDKSYKENIMRLSSLHKDRPVEPLDLAVFWVEFVMRHKGAPHLRPAAHDLTWYQYHSLDVIGFLLAVVLTVAFITFKCCAYGYRKCLGKKGRVKKAHKSKTH
Take B1: in “purified protein”, the Km is on record as 15.27 ± 7.73 µM and the Vmax came to 0.352 µmol/min/mg.
